According to paper PMC8839947, “Highly Sensitive RNA-Based Electrochemical Aptasensor for the Determination of C-Reactive Protein Using Carbon Nanofiber-Chitosan Modified Screen-Printed Electrode”:

Target: T1, C-reactive protein (CRP) (UniProt P02741 19-224)
T1 sequence: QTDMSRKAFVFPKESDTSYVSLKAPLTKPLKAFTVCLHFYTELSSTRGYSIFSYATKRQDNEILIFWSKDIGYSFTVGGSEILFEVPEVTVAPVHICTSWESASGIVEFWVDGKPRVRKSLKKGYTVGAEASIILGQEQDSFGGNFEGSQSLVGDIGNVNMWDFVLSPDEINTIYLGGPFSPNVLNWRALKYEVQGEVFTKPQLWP
Assay: square-wave voltammetry (Langmuir isotherm, MB signal-off electrode); 2 mM CaCl2; 60 min incubation; KL 1.07 pM-1; CRP incubation in 0.1 M Tris pH 7.4, 2 mM CaCl2, 60 min; SWV read-out in PBS (0.1 M, pH 7.4); BSA-blocked electrode; incubation temperature not stated (298 K used in calculations)
Conditions: protein: commercial; chain copies: 5; label: methylene blue self-assembled (non-covalent); immobilized via glutaraldehyde on CNFs-chitosan carbon screen-printed electrode

For GCCUGUAAGGUGGUCGGUGUGGCGAGUGUGUUAGGAGAGAUUGC (structured_RNA, 5'-NH2-(CH2)6) [CRP RNA aptamer (5'-amino)], the Kd was 0.93 pM.
